Test results as given in the supplement of paper PMC7877785.
± gives the uncertainty stated by the source.

Assay: self-splicing fitness, log relative to wild type (ln ratio); higher = more splicing; Tetrahymena group I intron in knt gene, E. coli kanamycin selection, DiMSum; sequences stand for … in CUCUCU…GGAGGGAAAAGUUAUCAGGCAUGCACCUGGUAGCUAGUCUUUAAACCAAUAGAUUGCAUCGGUUUAAAAGGCAAGACCGUCAAAUUGCGGGAAAGGGGUCAACAGCCGUUCAGUACCAAGUCUCAGGGGAAACUUUGAGAUGGCCUUGCAAAGGGUAUGGUAAUAAGCUGACGGACAUGGUCCUAACCACGCAGCCAAGUCCUAAGUCAACAGAUCUUCUGUUGAUAUGGAUGCAGUUCACAGACUAAAUGUCGGUCGGGGAAGAUGUAUUCUUCUCAUAAGAUAUAGUCGGACCUCUCCUUAAUGGGAGCUAGCGGAUGAAGUGAUGCAACACUGGAGCCGCUGGGAACUAAUUUGUAUGCGAAAGUAUAUUGAUUAGUUUUGGAGUACUCGUGGUCG
Summary of the method: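 The eight P1ex-region nucleotides of an intron in the knt kanamycin-resistance gene on pET-22b(+) were all randomised and the library put into E. coli BL21(DE3). Six replicate transformations were grown overnight at 37°C or 30°C on LB agar with or without 25 μg/mL kanamycin, together with 100 μg/mL carbenicillin, 50 μM IPTG and 0.2% rhamnose. Colonies were pooled and amplicon-sequenced on an Illumina HiSeq 2500. Fitness from DiMSum is the error-weighted combination of wild-type-normalised replicate fold changes, kanamycin over none.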

Sequence	self-splicing fitness (ln) (30 °C)	self-splicing fitness (ln) (37 °C)
UUGAAGCAAUAUUACGUCAC	-3.27 ± 0.21	-1.25 ± 0.2
UGAUAGCAAUAUUACGAUUC	-2.33 ± 0.24	-2.41 ± 0.49
AAGCAGCAAUAUUACGUGCG	-0.989 ± 0.073	-0.0742 ± 0.092
AGCCAGCAAUAUUACGAUGA	-3.75 ± 0.29	-2.35 ± 0.24
GCAGAGCAAUAUUACGGAGA	–	-2.09 ± 0.43
CCGAAGCAAUAUUACGAGCA	-2.35 ± 0.22	-2.9 ± 0.36
GCACAGCAAUAUUACGUGUU	-3.75 ± 0.089	-2.07 ± 0.085
AGCGAGCAAUAUUACGUCGG	-3.45 ± 0.32	-2.08 ± 0.25
CACCAGCAAUAUUACGACAA	-2.61 ± 0.23	-2.73 ± 0.2
AACAAGCAAUAUUACGGUGA	-0.546 ± 0.059	-0.765 ± 0.073
UACAAGCAAUAUUACGGUAA	-2.12 ± 0.1	-1.15 ± 0.1
CGCUAGCAAUAUUACGGGGU	-3.83 ± 0.21	-3.12 ± 0.21
UUAUAGCAAUAUUACGCUGA	-2.17 ± 0.14	-0.624 ± 0.13
AAUUAGCAAUAUUACGAUCU	0.226 ± 0.09	0.704 ± 0.11
UCAAAGCAAUAUUACGAUGA	-0.6 ± 0.074	-0.51 ± 0.084
AAGAAGCAAUAUUACGAUAG	-3.6 ± 0.28	-1.87 ± 0.2
AACUAGCAAUAUUACGGCCU	-0.472 ± 0.09	-0.0804 ± 0.095
ACGCAGCAAUAUUACGAUCC	-2.24 ± 0.15	-1.09 ± 0.17
UGGCAGCAAUAUUACGGCGA	0.0623 ± 0.12	0.97 ± 0.13
UUCUAGCAAUAUUACGUGAA	-0.339 ± 0.066	-0.148 ± 0.082
AGAUAGCAAUAUUACGAAAU	-2.87 ± 0.13	-0.838 ± 0.12

Sequence	self-splicing fitness (ln) (30 °C)	self-splicing fitness (ln) (37 °C)
UAGCAGCAAUAUUACGCCUU	-0.751 ± 0.078	-0.21 ± 0.13
AAUUAGCAAUAUUACGUGAA	-2.4 ± 0.15	-1.22 ± 0.17
CCGUAGCAAUAUUACGACAU	-3.773 ± 0.027	-2.94 ± 0.042
GGGGAGCAAUAUUACGGGGU	-3.23 ± 0.3	-2.13 ± 0.43
AGUUAGCAAUAUUACGGAAA	-2.89 ± 0.35	-2.55 ± 0.44
CGAUAGCAAUAUUACGAUGG	-0.196 ± 0.12	-0.185 ± 0.2
AGUUAGCAAUAUUACGAGCC	-1.84 ± 0.13	-1.12 ± 0.13
CGGAAGCAAUAUUACGUUGU	-3.82 ± 0.22	-2.88 ± 0.24
AAGGAGCAAUAUUACGCACA	–	-1.89 ± 0.47
CUCGAGCAAUAUUACGUAAA	-3.8 ± 0.34	–
ACCCAGCAAUAUUACGACAC	-2.41 ± 0.091	-0.292 ± 0.083
CUGUAGCAAUAUUACGGAGG	-4.1 ± 0.27	-2.64 ± 0.26
UAUCAGCAAUAUUACGUGCG	-0.0936 ± 0.087	0.327 ± 0.11
CUCGAGCAAUAUUACGAGUA	-2.77 ± 0.24	-2.75 ± 0.31
UACCAGCAAUAUUACGGCGA	-0.21 ± 0.13	0.254 ± 0.19
CGUAAGCAAUAUUACGCCAC	-2.55 ± 0.42	-0.936 ± 0.3
GCUUAGCAAUAUUACGUCAC	–	-1.53 ± 0.5
GAGCAGCAAUAUUACGCACC	-2.67 ± 0.39	-1.82 ± 0.48
UCGCAGCAAUAUUACGACCU	-3.1 ± 0.41	-1.37 ± 0.27
UUACAGCAAUAUUACGGUAU	-1.96 ± 0.097	-0.871 ± 0.1
CCUCAGCAAUAUUACGAGCU	-4.22 ± 0.37	-1.9 ± 0.23

Sequence	self-splicing fitness (ln) (30 °C)	self-splicing fitness (ln) (37 °C)
CGUAAGCAAUAUUACGUUUC	-3.97 ± 0.24	-1.92 ± 0.2
UCUCAGCAAUAUUACGCGCG	-2.42 ± 0.21	-1.71 ± 0.24
ACAUAGCAAUAUUACGCCCC	-1.98 ± 0.39	-0.782 ± 0.41
CUUCAGCAAUAUUACGCGCC	-3.28 ± 0.3	-1.92 ± 0.24
GGGCAGCAAUAUUACGAUAU	-0.768 ± 0.099	-0.877 ± 0.1
GGCCAGCAAUAUUACGAGUA	-2.59 ± 0.12	-2.05 ± 0.12
CCCAAGCAAUAUUACGAUUG	-3.88 ± 0.2	-2.78 ± 0.28
CAGCAGCAAUAUUACGCCGG	-0.792 ± 0.09	-0.31 ± 0.098
GCGAAGCAAUAUUACGGCCU	-1.4 ± 0.12	0.334 ± 0.16
AUCGAGCAAUAUUACGGAAC	-2.61 ± 0.31	-2.07 ± 0.4
CGGUAGCAAUAUUACGGGGC	–	-2.39 ± 0.34
AACAAGCAAUAUUACGUGCC	-0.971 ± 0.086	-0.503 ± 0.12
CACGAGCAAUAUUACGAUAC	-3.07 ± 0.24	-2.73 ± 0.36
UAUCAGCAAUAUUACGCCGG	-0.251 ± 0.22	0.843 ± 0.26
UCCGAGCAAUAUUACGUUAA	-2.36 ± 0.21	-2.57 ± 0.28
CUGCAGCAAUAUUACGGUGU	-4.57 ± 0.36	-2.37 ± 0.24
GGAAAGCAAUAUUACGAUCA	0.0514 ± 0.081	-0.282 ± 0.099
CGGCAGCAAUAUUACGGAUA	-3.38 ± 0.22	-2.39 ± 0.18
UCACAGCAAUAUUACGAAAU	-3.43 ± 0.37	-0.587 ± 0.16
